The values below come from patent US20220089752A1 (University of California, published 2022).

For assay [1], the target named is T1, ephrin type-A receptor 2 (EphA2) on cells (human, UniProt P29317 24-976).
T1 construct: whole, on cells
Nature of the assay: flow cytometry on DU145 cells, 1 h at 25 C, 40 pM to 125 nM, MFI curve fit (apparent KD). How it is done:
(§1) In these experiments, apparent binding affinity of RYR IgG1 versus RYRgerm_102919_15 IgG1 on DU145 cells was evaluated. In these experiments, DU145 cells were incubated for 1 h at 25° C. with RYR or RYRgerm_102919_15 at a range of concentrations between 40 pM to 125 nM, washed, and binding detected with anti-human Alexa Fluor 647. MFI values were curve-fit to generate the apparent KD values.
(In general: A flow cytometer gives signals particle by particle.)

The target of assay [2] is T1, ephrin type-A receptor 2 (EphA2) on …. Nature of the assay: flow cytometry on DU145 cells (apparent KD). How it is done: as §1
For another assay, the target named is T2, recombinant human EphA2 (human, UniProt P29317 25-534).
T2 construct: also called human recombinant EphA2 protein
T2 sequence (P29317 25-534 limits assumed): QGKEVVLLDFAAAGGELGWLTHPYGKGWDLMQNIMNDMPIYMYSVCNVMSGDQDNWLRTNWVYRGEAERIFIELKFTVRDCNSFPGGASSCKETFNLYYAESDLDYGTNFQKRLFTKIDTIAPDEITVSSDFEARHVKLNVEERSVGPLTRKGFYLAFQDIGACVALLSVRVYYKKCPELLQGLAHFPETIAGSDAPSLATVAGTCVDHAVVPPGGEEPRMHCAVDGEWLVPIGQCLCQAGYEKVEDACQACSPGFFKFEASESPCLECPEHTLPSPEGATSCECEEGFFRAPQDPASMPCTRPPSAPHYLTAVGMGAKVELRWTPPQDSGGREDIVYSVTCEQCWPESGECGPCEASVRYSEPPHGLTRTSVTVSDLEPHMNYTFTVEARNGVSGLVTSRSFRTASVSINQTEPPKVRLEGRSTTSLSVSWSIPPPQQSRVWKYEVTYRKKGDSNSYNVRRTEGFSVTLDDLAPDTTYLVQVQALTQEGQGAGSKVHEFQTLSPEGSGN
Briefly: BLI (Probe Life Gator), IgG1 on anti-human Fc probes, 100 nM recombinant human EphA2, 25 C.

T1 sequence (P29317 24-976): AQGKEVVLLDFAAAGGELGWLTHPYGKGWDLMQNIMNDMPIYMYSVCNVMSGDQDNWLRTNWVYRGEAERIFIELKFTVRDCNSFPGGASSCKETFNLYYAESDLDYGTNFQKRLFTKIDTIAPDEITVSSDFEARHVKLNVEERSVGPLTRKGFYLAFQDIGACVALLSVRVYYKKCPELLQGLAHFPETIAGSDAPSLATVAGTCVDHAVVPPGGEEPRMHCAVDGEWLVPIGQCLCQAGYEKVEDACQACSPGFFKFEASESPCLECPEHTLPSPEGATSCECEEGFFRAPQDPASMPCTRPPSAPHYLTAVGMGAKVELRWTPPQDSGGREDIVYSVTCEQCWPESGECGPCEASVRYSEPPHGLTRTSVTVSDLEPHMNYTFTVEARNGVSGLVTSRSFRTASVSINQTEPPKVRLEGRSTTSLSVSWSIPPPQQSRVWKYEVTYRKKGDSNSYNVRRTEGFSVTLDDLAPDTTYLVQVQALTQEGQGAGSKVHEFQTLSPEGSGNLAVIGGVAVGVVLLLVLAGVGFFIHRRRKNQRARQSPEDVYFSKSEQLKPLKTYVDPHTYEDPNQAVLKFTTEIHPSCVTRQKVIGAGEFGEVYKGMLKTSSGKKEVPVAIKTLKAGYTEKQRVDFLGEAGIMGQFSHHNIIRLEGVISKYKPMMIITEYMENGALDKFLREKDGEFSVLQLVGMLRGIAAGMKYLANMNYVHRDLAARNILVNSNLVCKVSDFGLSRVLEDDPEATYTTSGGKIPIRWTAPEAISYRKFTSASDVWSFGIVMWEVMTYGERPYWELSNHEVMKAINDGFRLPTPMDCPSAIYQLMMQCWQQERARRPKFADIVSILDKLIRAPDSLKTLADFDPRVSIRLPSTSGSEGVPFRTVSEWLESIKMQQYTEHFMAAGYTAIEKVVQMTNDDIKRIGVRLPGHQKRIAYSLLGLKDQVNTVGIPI

B1: RYRgerm_102919_15 IgG1 (antibody, V domains shown)
VH: EVQLVESGGGLVQPGGSLRLSCAASGFTFSSYSMNWVRQAPGKGLEWVSYISSSSSTIYYADSVKGRFTISRDNAKNSLYLQMNSLRAEDTAVYYCARYRLPNFWSGYPNYGTDVWGQGTTVTVSS
VL: QSVLTQPPSVSGAPGQRVTISCTGSSSNIGAGYDVHWYQQLPGTAPKLLIYGNSNRPSGVPDRFSGSKSGTSASLAITGLQAEDEADYYCQSYDSSLSGHVVFGGGTKLTVL
notes: Recombinant human IgG1 built from the scFv RYRgerm_102919_15
As a reminder, the koff is the first-order rate constant of dissociation. The kon is the rate constant with which the complex forms. With B1, the Kd in assay [1] is 0.23 nM. Further, in assay [2], the “fold increase in binding affinity against RYR IgG1” value was ~100 fold. In addition, in the assay with recombinant human EphA2, the Kd is ~5 nM, the “fold increase in binding affinity against RYR IgG1” value was ~5 fold, the koff is 0.00132 s⁻¹ and the kon amounted to 262000 M⁻¹ s⁻¹.
